Results reported in patent publication US20240325557A1, “TREATMENT OF CANCER” (INNATE PHARMA, priority 2020, published 2024).

Key:
[1] = biological target: Rat Nectin-4 on CHO cells (rat); experiment: flow cytometry titration on CHO cells expressing rat Nectin-4, median MFI (PE)
[2] = biological target: monomeric huNectin4-his-BirA protein (human) (UniProt Q96NY8); experiment: SPR (Biacore T200), antibody captured on Protein A, monomeric huNectin4-his-BirA injected

B1: antibody 5E7 (antibody, human IgG1, V domains shown)
VH: QVQLQQPGAELVKPGASVKLSCKASGYIFTSYWMHWVKQRPGQGLEWIGEIDPSDSYTNYNQKFKGKATLTLDKSSSTTYMQLSSLTSEDSAVYYCVRGYGNYGDYWGQGTTLTVSS
VL: DVVMTQAAFSNPVTLGTSASISCRSSKSLLHSNGITYLYWYLQKPGQSPQLLIYQMSNLASGVPDRFSSSGSGTDFTLRISRVEAEDVGVYYCAQNLELPWTFGGGTKLEIK
EC50 (read off the curve) [1]: 0.1 µg/mL

B2: antibody 10B12 (antibody, human IgG1, V domains shown)
VH: QVQLQQPGAELVKPGASVKLSCKASGYTFTSYWMHWVKQRPGQGLEWIGEIDPSDSYTNYNQKFKGKATLTVDKSSSTAYMQLSSLTSEDSAVYYCVRGYGNYGDYWGQGTTLTVSS
VL: DIVMTQAAFSNPVTLGTSASISCRSSKSLLHSNGITYLYWYLQKPGQSPQLLIYQMSNLASGVPDRFSSSGSGTDFTLRISRVEAEDVGVYYCAQNLELPWTFGGGTKLEIK
EC50 (read off the curve) [1]: 0.1 µg/mL

B3: Enfortumab (ASG-22ME) (antibody, from a related filing, V domains shown)
VH: EVQLVESGGGLVQPGGSLRLSCAASGFTFSSYNMNWVRQAPGKGLEWVSYISSSSSTIYYADSVKGRFTISRDNAKNSLSLQMNSLRDEDTAVYYCARAYYYGMDVWGQGTTVTVSS
VL: DIQMTQSPSSVSASVGDRVTITCRASQGISGWLAWYQQKPGKAPKFLIYAASTLQSGVPSRFSGSGSGTDFTLTISSLQPEDFATYYCQQANSFPPTFGGGTKVEIKR
Kd [2]: 13.7 nM
koff [2]: 0.0047 s⁻¹
kon [2]: 340000 M⁻¹ s⁻¹
